Where two headings read alike, the source gives them in different places.
Legend:
[1] = biological target: cross-linked self-assembled CA tubes (CA A14C/E45C co-assembled with CA K158C-AF488) (HIV-1); experiment: TIRF fluorescence microscopy binding assay; cross-linked CA tubes held on the cover slip by an anti-p24 antibody; CypA 1-50 uM (1 uM AF647-CypA plus unlabelled CypA) flowed in; 50 mM Tris pH 8, 150 mM NaCl; equilibrium binding model on the CypA:CA molar ratio
[2] = biological target: native HIV-1 capsid (wild type CA lattice of authentic viral cores) (HIV-1 (pNL4.3-iGFP-ΔEnv and psPAX2)); experiment: TIRF fluorescence microscopy binding assay
[3] = biological target: biotinylated cross-linked CA hexamer (CA A14C/E45C/W184A/M185A) (HIV-1); experiment: SPR; Biacore S200; biotinylated CA K158C or biotinylated CA hexamer immobilised on streptavidin-modified CM5 chip; CypA injected at 1.1-72.8 uM; 10 mM HEPES pH 8, 0.005% Tween 20, 2 mM EDTA, 150 mM NaCl; equilibrium analysis, single experiments
[4] = biological target: biotinylated CA K158C (unassembled HIV-1 CA) (HIV-1); experiment: as above
[5] = biological target: native HIV-1 capsid (wild type CA lattice of authentic viral cores) (HIV-1 (pNL4.3-iGFP-ΔEnv and psPAX2)); experiment: TIRF fluorescence microscopy binding assay; remark: listed apart in the source

Question: How did the Kd [1] turn out when CypA A25D (enzyme) was run?
Answer: Its Kd is 17.2 µM.

Question: And the stoichiometry N (molar ratio of CypA:CA when saturated) [1]?
Answer: The stoichiometry N (molar ratio of CypA:CA when saturated) was 0.39.

Question: What about the Kd [2] of the same substance?
Answer: Its Kd is 11.2 µM.

Question: And the stoichiometry N ([2]; scale: CypA loops occupied at saturation per capsid)?
Answer: The stoichiometry N was 877.

Question: And the stoichiometry N ([2]; scale: CypA molecules bound per capsid at saturation)?
Answer: The stoichiometry N was 688.

Question: What about the Kd [3] of the same substance?
Answer: Its Kd is 20.8 µM.

Question: What about the Kd [4] of the same substance?
Answer: Its Kd is 22.6 µM.

Question: And the Kd [5]?
Answer: Its Kd is 8.7 µM.

Question: Which Kd [1] does the source give for CypA K27D (enzyme) here?
Answer: Its Kd is 17.7 µM.

Question: And the stoichiometry N (molar ratio of CypA:CA when saturated) [1]?
Answer: Its stoichiometry N (molar ratio of CypA:CA when saturated) is 0.24.

Question: And the Kd [3]?
Answer: Its Kd is 21.7 µM.

Question: What about the Kd [4] of the same substance?
Answer: Its Kd is 28.5 µM.

Question: CypA K30D (enzyme) was tested. Which Kd [1] did it give?
Answer: Its Kd is 17 µM.

Question: And the stoichiometry N (molar ratio of CypA:CA when saturated) [1]?
Answer: The stoichiometry N (molar ratio of CypA:CA when saturated) was 0.39.

Question: What about the Kd [3] of the same substance?
Answer: The Kd was 35.7 µM.

Question: And the Kd [4]?
Answer: Its Kd is 37.9 µM.

Question: What does the source list for CypA P29K (enzyme)?
Answer: Kd [1]: 16.4 µM; stoichiometry N (molar ratio of CypA:CA when saturated) [1]: 0.32; Kd [3]: 21 µM; Kd [4]: 20.6 µM
